In paper PMC3516549 (PLoS Pathogens, 2012):
Values joined by “and” are separate entries in the source; they are usually repeats but may differ in a detail not shown here. Equal values may be shown once.

B1: 1I20 Fab (Fab, V domains shown)
VH: EVQLVESGGGVVQPGGSLRLSCIASAFNLGIFGMHWVRQAPGKGLEWVAFIRYDGGKTFYADSVKGRFTISRDNSKNTLYLQMNSLRTEDTALYYCARDATADYYGPGSYPNWLDPWGQGTLVTVSS
VL: DIRLTQSPATLSVSPGERATLSCRASHSVSRNLAWYQQKPGRAPRLLVYDTSSRATGIPARFSGSGSGTEFTLTISSLQSEDFAVYYCQQYNNWPRTFGQGTKVDIK
notes: also called mAb 1I20; source: HEK 293F, transiently co-transfected, purified (HiTrap Protein G)
B2: 1I20 Fab (Fab, V domains shown)
VH: B1 VH
VL: B1 VL
notes: also called mAb 1I20

Assays:
[1] = biological target: recombinant trimerized His-tagged soluble HA of A/South Carolina/1/18 (1918 wt) (Influenza A virus A/South …, UniProt Q9WFX3, strain); assay: BLI; […]; 1:1 binding model, […]; conditions: both partners purified
[2] = biological target: recombinant trimerized His-tagged soluble HA, A/South Carolina/1/18 (1918 wt) (Influenza A virus A/South …, UniProt Q9WFX3, strain); assay: BLI; conditions: both partners purified

Binder | Kd [1] | koff [1] | kon [1] | Kd [2] [nM]
B1 | 3.22 nM and 3.46 nM | 0.000375 s⁻¹ and 0.000366 s⁻¹ | 116000 M⁻¹ s⁻¹ and 106000 M⁻¹ s⁻¹ | 
B2 |  |  |  | 3.3
